Results on 1 molecule are retold here after patent US20090004190A1, “Rage Fusion Proteins And Methods Of Use” (priority 2006, published 2009).

The test has as its target T1, amphoterin (Ampho) (Homo sapiens, UniProt P09429).
T1 sequence (P09429 1-215): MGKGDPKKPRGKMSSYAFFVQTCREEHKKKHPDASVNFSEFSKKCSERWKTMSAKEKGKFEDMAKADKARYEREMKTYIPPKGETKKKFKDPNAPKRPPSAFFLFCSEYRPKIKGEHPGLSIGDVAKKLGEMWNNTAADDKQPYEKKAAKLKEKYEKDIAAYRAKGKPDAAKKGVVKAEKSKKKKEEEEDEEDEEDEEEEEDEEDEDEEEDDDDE
In words: In vitro ligand binding (ELISA) to immobilized amphoterin. Conditions: ligand 5 micrograms per well; FIG. 7. As to the method: For example, the RAGE fusion protein may be used in a binding assay to identify potential RAGE ligands. In one example embodiment of such a binding assay, a known RAGE ligand may coated onto a solid substrate (e.g., Maxisorb plates) at a concentration of about 5 micrograms per well, where each well contains a total volume of about 100 microliters (μL). The plates may be incubated at 4° C. overnight to allow the ligand to absorb. Alternatively, shorter incubation periods at higher temperature (e.g., room temperature) may be used. […] The RAGE fusion protein bound to the immobilized ligand may be detected in a variety of ways. […] The bound complex may be detected by adding the alkaline phosphatase substrate, para-nitrophenylphosphate (PNPP), and measuring conversion of PNPP to para-nitrophenol (PNP) as an increase in absorbance at 405 nm. […] In the absence of ligand (i.e., coating with only BSA) there was no increase in absorbance. […] Binding was detected by the addition of an immunodetection complex containing a monoclonal mouse anti-human IgG1 diluted 1:11,000 to a final assay concentration (FAC) of 21 ng/100 μL, a biotinylated goat anti-mouse IgG diluted 1:500, to a FAC of […], and an avidin-linked alkaline phosphatase. […]
In general terms: ELISA stands for enzyme-linked immunosorbent assay.

B1: TTP-4000: four domain RAGE fusion protein: human RAGE V and C1 domains with interdomain linkers (to residue 251) fused to human IgG1 CH2 and CH3; SEQ ID NO: 34/56 (protein, listed as Homo sapiens)
chain: QNITARIGEPLVLKCKGAPKKPPQRLEWKLNTGRTEAWKVLSPQGGGPWDSVARVLPNGSLFLPAVGIQDEGIFRCQAMNRNGKETKSNYRVRVYQIPGKPEIVDSASELTAGVPNKVGTCVSEGSYPAGTLSWHLDGKPLVPNEKGVSVKEQTRRHPETGLFTLQSELMVTPARGGDPRPTFSCSFSPGLPRHRALRTAPIQPRVWEPVPLEEVQLVVEPEGGAVAPPSVFLFPPKPKDTLMISRTPEVTCVVVDVSHEDPEVKFNWYVDGVEVHNAKTKPREEQYNSTYRVVSVLTVLHQDWLNGKEYKCKVSNKALPAPIEKTISKAKGQPREPQVYTLPPSRDELTKNQVSLTCLVKGFYPSDIAVEWESNGQPENNYKTTPPVLDSDGSFFLYSKLTVDKSRWQQGNVFSCSVMHEALHNHYTQKSLSLSPGK
On to B1, for which the “binding to immobilized amphoterin (absorbance at 405 nm)” value is “specifically interact”.
